Data: a protein production outcome set (Wang et al. 2014)

assay: label from the status in PepcDB records
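Note: failed if final PepcDB status was selected cloned or expressed and not failed if soluble or beyond.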

Sequence | protein production
MKTTIQTITLILGLFISSLAIASPEFPTQEPMGGKTFGHSVKHVGNGIYVFRWWVYRNFFVVTDDGVIVSDPLNPKAAKLLQSEIRKITDKPVKYVVYSHNHHDHISGGNIFKAEGAKFIGHKNLLKQLKDHPSPVLPIPDIVFEDTYTLTLGNRTLELSYFGPNHGDSLVVMRFPKEKILFVVDIVTPRRVAFRGMPDFWPDEWVRSLKEIELMDVDYVISAHGPENQPAIDPASVIKEQRVYIEDLMAAVKLKMDEGVHSPDALRKQVKLPKYEHWQYYEQWLPMNIERIWAYYHMGW | failed
MKTTLLKTLTPELHLVQHNDIPVPSLKTCGWNTKNFPCKGHSLSVGXPQNAKQDVLWLSEVEPFKNGNAIRGGVPICYPWFGGVKQPAHGTARIRLWQLSHYYISVHKVRLEFELFSDLNIIEAKVSMVFTDKCHLTFTHYGEESAQAALHTYFNIGDINQVEVQGLPETCFNSLNQQQENVPSPRHISENVDCIYSAENMQNQILDKSFNRTIALHHHNASQFVLWNPWHKKTSGMSETGYQKMLCLETARIHHLLEFGESLSVEISLKG | not failed
MKTTPDILDQIRVHGADAYPEEGCGFLLGTVTDDGDNRVAALHRATNRRSEQRTRRYELTADDYRAADAAAQEQGLDVVGVYHSHPDHPARPSATDLEEATFPGFTYVIVSVRDGAPEALTAWALAPDRSEFHREDIVRPDPEAPLEHHHHHH | failed
MKTWFKYIKLLLLSVCTFLLVTGCNSNVSKLPSNQTTSNITTNCRVINHEAGKTQICGQPKKVVALSPPVLDMMLALGVQPAGYAEVDLLNSKVFDRPKEQIPYLGDRITSQPMNVGDRGNPSLESLLQLKPDLILGEASYNETEYQILNKIAPTILISHRDGITPAWQQTISIIAQALGREDKVPTVIAEYEQKLSQAKTAIAPIAQHQELLLLAFRGITLTSFTFGAETFAGGLLQDLGFKLVSPESTEYEVALEVLPKFKSDLIVIMPSGNNNIENAKRQWSQNPILQSISAHNTNRIYFIDYQLASRIRGPIAAELFVNQVRQLLS | failed
MKVDVDEKTYIITMANDITKLYEENKRNLHYSITDPLTGAYNRKYLNDRFDIFIGDYIVLIDLDNFKMINDYEGHNVGDKILCDFVSLLNKELINSTSIIRLGGDEFIVIFSSDVDKNYVYSQLEALRENFLKVFSKYKYLSFSYGVDTVKRNLKLTIVELDKKMYKNKEKLEHHHHHH | failed
MKVELTAIEARVIGCLIEKEVTTPDQYPLSLNALTNASNQKSNREPVMALSESDVLDAVDALIERRLVSDESAFNSRVSKYQHRFCNTEFGDLKLSEQEKGIICCMLLRGAQTPGEIRTRTNRLATFHDVKEVEAVLEHLASEEKGPLVVKLPREAGKRESRYMHLFCGEVDVSAMAAAVPATSSSSVRIAQLEQEVAELREELDALKAQVESLLS | not failed
MKVERRTIEYIPNEERHGKAKDLFPVWFGANMHITTLVTGTIPVAMGLNLFWSVAAIICGTLIGAIFMASHSAQGPQLGIPQMIQSRAQFGVIGAILPLFLVMFIYLGFFASSTILAAGTLSSFVPIPGSWSIIGLSAVCFLLTIFGHDLIHKMQKILSWTSFAVFFAATILIFQLPIPAGSWIPGAIDLPIFLVAVSAVATWQLAYAPYVADYSRYLPVKTPASKTFWYSYAGTSVSSIWMMLLGALLTTSLPDFTANSGSQIVQLFGPFSFIMLIIVLFGQMAINVFNLYGAFMSTTTTLEPFLKLKVTPKVRIIMILGVTLVGTVLSLLGQSNFMELFLNFIFFISYFLIPWTAINLVDYYFVRHGKYQVKAMFDVNGPYGKVNWITTIAFVLSILLEIPFINTSFYIGPLAKMFGGGDIAWIIGLAVPSVLYYVLMKPRLKKRAGYQEKLSSL | failed
MKVIICGAGQVGYGIAEQLSREDNEVSVIDTAAPLITAITETLDVRGYVGHGAHPDMLAKAGADQADMIIAVTLHDEINIVACEVAHALFSVPTKIARIRDQSYMKPEYADLFSRENMSIDVTISPEVEVGKMVLRRIAFPGATDVVRFAEDTIYMLAIECMEDCPVINTPLQQLSSLFPDLIATVVGVYRDGILKVAHSSEQLRVGDLAYVICQRQHARRTLSLFGHEEQEAQRIVIAGAGNIGHFVAHKIEEMQSKTRVKIIEADRDRAIAASEQLSHTIVMHGSALDQKILMQADIQDADLIVTLTNNDQTNILAAVIAKQLGCKSNLALLNSTSFHDVARSLGLDAYINPRAVTISRVLQHVRKGRIRSVYAVQRGSAEVIEAEALETSPLVGQSFRDIDMPDGVRIGAIYRDGVVIRPDGSTKIKAKDRVVLFASADAVRDVEQLFRVSIQYF | failed
MKVILVNGSPHKDGCTFTALEEVAKALNEEGIDTEFFHLGTKPLNGCIACGHCRKHQRCVFPDSVNEFLDLAQEADGFIFGSPVHYAAAGGAITSFLDRVFYTDSGSGKQAFYLKPAAAVVSARRAGTTASLDQLNRYFTIKEMPIISSKYWNMVHGNTPEEVRKDEEGLQIMRTLGRNMAWFLKCKEAGIRAGIPFPSQEEGLRTNFIRLEHHHHHH | not failed
MKVKDVCKLISLKPTVVEEDTPIEEIVDRILEDPVTRTVYVARDNKLVGMIPVMHLLKVSGFHFFGFIPKEELIRSSMKRLIAKNASEIMLDPVYVHMDTPLEEALKLMIDNNIQEMPVVDEKGEIVGDLNSLEILLALWKGREK | not failed
MKVKIYTRNGCPYCVWAKQWFEENNIAFDETIIDDYAQRSKFYDEMNQSGKVIFPISTVPQIFIDDEHIGGFTELKANADKILNKK | not failed
MKVKLFAIHLFFIVISFGIKYYHLQGPNLIWNMTLALIALDFAYLTSLFKKKILIGLFALAWFFFYPNTFYMLTDIIHMHFVGDVLYNKTNLILYILYVSSILFGFLSGIESFSVIMRKFRISNIFLRWGIIGIVSLVSSFGIHIGRYARLNSWDILTKPQVVINELLAVPSRDSFHFILGFTFLQVLCLIFMDYSAGKKLEK | failed
MKVLFIHPFGSNWLGTGTDITTIFNLMPPLGLLSIAAFLEARGIGTEVIDCYATPMPAETLVAEVIRRRPDVVGFSCTTSSFLEGYSIAERIKEKAPGITTVFGGAHACSVGVGLLDTFPAIDYLVIGEGEQTFFELVTNLDHGGSGIPGVGYRENGKGVISALREHIANLDDLPFPAYHRLPQFPKRYILPLFSYPKAPNTSIISSRGCPYQCSYCDRSVFSRGFRFNSPEYIVEHLKMLNRDYGIRHVFFYDDLFTTDRARVARFCELKERERLPVTYNCIARLEHVDAELLRLLKRSGCWQVNFGIESGDPEVIKKHRKFYGLDEVQRKLQLVRDTGMRVKGLFMVGLPGETEESIRRTIDYALALPLDEINVTKFTPFPGAPLYATIREQGEFDENWPLMNCLNFVFVPHGMTREQLEGLYNEFISRFYRRSRIHWGYTKMLWKSPHSVATFLRHLPEILAFELKQKW | failed
MKVLITDFDLFAKVGGGQTFYRSLIRKNPDIDFYYLIDKEARVTERPDNAHGVPFQEKYFLADLNNFFDVNPPKWVYRSFIRASNIATSVAGMEFDLIDSPDYEQWAIFLRPALDYHRVKFAKIALSLHGKISTTLKLDWFNQGKENIPLELEEWKQYATVDLRYGISKSYIDEWQSLSRFSAHYYHPLHFFELPQPLEAIASGDRPDLNFVGRTEKRKGPDIFIDIAWWLNRNLYHEANIIGPHSFNDTGTISSETYLRSMLGDRQSPVKFLPPKPQQELMGLFARKTVTFVPSRYDTLNLVALESLFSGCPTVVGGGAGVCRLLKEDFPDVPFVEIDLDNIYSCLPAIENILSDYNNYRRRLVDSVKNSTAIADSPILADIYQQTGQYEEEIRDELQSWYGQLMGYWVSTQENVSFLQPLKAQLKPTLKQIKNNLKSTAGQLKGKILQPLADDRNAQLVKAPNLLKKYKEAFNATEQTAKDLAEKIQMGWRLGSGYESEFQGVRGKLATNYRIDRVRLWRELARIEELRGNTLVSATYKVRALRALGSDQFGDLPFVLRTLTEYGFPKEMAAVSALYGQPSEREERCLSLIEQARLDNLANPAGDEYEIWDDRRGDGPYRASIIVSLYNAAAKLPLFLKTLQHQTLIKRGEAEVVLVDSGSPGNEYEVFKDLAPTLGYPLLYARSPQRETIQSAWNRGIKLAKSPYLAFLGVDETILPDCLEILAGELDQDPELDWAIGHSLVTNVDMQGGWVSDIMPYDRTGYEQDLVYLETCYLSWVGALYRKSIHERFGYYDQSFRGAGDTEFKNRVMPFIKSKVVDKMLGLFWNYPDERTTQSPATEIEDMRAWYLHRTLAGVKYAFQRRSPREVENLLYHCLGYRKSYCKHTSTDFDHAHNLVTYLEKVDPNAEALKYAPGIEALLGTYRSLDWLPKLSKFSPLNSMLTARKLTKQWEQEHQQSWPEDRLFSPHYSIFNDNRHEQHSFLWFTDITASKK | failed
MKVLLIIPAYNEEENILRTIASIETFKQEVTHFQHELDYVVINDGSTDGTKQILEANQINAIHLVLNLGIGGAVQTGYKYALENEYDVAVQFDGDGQHDINSLPILLEPLAEGKCDFSIGSRFIPGNEASFQSTKMRRFGIRLLSFCIRMASGKTIYDVTSGYRAGNRKVIAFFAKRYPTNYPEPESIVHLIKKRFVIVERPVNMMERLGGVSSIRALASVKYMLEVGSAILIAAFMKEGDLEHHHHHH | not failed
MKVLTVVIPCYNSAEYMDRAIESLLIGDEELEILIVNDGSMDNTSIIADEYEKKYPNTIRVIHKENGGHGDAINTGLKHSKGVYFKVLDSDDWFDKASLKKVLEVLKNMIKDSKSLDMLISNYVYENFSINKSRSINYKGAMPKEKIFTWDSLGHLKSSQNILMHSVIYRTELLRECNLDLPKHTFYVDNIFVYKPLPYVKTMYYLDVDLYRYFIGREDQSVNEKVMIKRIDQQIKVTKILIDCYNPMLLNCKKLRKYMVKYLVMMMTVSTVLLIKDNTEQSLNKKRELWSYLHSKNRKLYFEVNKSFLGLLIQIKGFVGRKIILLGYSLSRKVFGFNLEHHHHHH | failed
MKVNILMATYNGEKFLAQQIESIQKQTFKEWNLLIRDDGSSDKTCDIIRNFTAKDSRIRFINENEHHNLGVIKSFFTLVNYEVADFYFFSDQDDVWLPEKLSVSLEAAKHKASDVPLLVYTDLKVVNQELNILQDSMIRAQSHHANTTLLPELTENTVTGGTMMINHALAEKWFTPNDILMHDWFLALLAASLGEIIYLDLPTQLYRQHDNNVLGARTMDKRFKILREGPKSIFTRYWKLIHDSQKQASLIVDKYGDIMTANDLELIKCFIKIDKQPFMTRLRWLWKYGYSKNQFKHQVVFKWLIATNYYNKRLEHHHHHH | not failed
MKVPEAAISRLITYLRILEELEAQGVHRTSSEQLGELAQVTAFQVRKDLSYFGSYGTRGVGYTVPVLKRELRHILGLNRKWGLCIVGMGRLGSALADYPGFGESFELRGFFDVDPEKVGRPVRGGVIEHVDLLPQRVPGRIEIALLTVPREAAQKAADLLVAAGIKGILNFAPVVLEVPKEVAVENVDFLAGLTRLSFAILNPKWREEMMG | not failed
MKVPKYQLIQNDLRQQIVSGKFENGDKFYTESELTKLFNVSSITVIRAVNELVKDGYLVRQQGKGTFVSRSRKGRLVEFSDIEIFPMDKDKVTVLSCEKGNKPDILEKLNLDKNEFYYKIVRVRAAEDTPYIFHNSYIPQRYIQNPDAPLEHYQSIYQRFKLDYNIHMSEEPFVETNEIVSPCPKEVATHLKLKATEPAVLQNKTTTNSTSGEVMEYTETYKHWKYYKFEITANHR | not failed
